What was measured:
[1] = molecular target: T1, BCMA蛋白 (BCMA protein, B cell maturation antigen) (human, UniProt Q02223 1-54); assay: ELISA, BCMA coated at 2 μg/mL, serially diluted scFv, detection by mouse anti-HA and HRP goat anti-mouse IgG, OD450
T1 construct: extracellular domain; also called 抗原BCMA; CD269
T1 sequence (looked up): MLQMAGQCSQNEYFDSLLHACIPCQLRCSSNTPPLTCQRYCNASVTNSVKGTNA

[2] = molecular target: T2, BSA蛋白 (BSA, control protein) (UniProt P02769 25-607); assay: ELISA, BSA coated at 2 μg/mL, serially diluted scFv, detection by anti-HA and HRP goat anti-mouse IgG
T2 construct: Control protein coated at 2 μg/mL; also called 对照蛋白
T2 sequence (P02769 25-607 limits assumed): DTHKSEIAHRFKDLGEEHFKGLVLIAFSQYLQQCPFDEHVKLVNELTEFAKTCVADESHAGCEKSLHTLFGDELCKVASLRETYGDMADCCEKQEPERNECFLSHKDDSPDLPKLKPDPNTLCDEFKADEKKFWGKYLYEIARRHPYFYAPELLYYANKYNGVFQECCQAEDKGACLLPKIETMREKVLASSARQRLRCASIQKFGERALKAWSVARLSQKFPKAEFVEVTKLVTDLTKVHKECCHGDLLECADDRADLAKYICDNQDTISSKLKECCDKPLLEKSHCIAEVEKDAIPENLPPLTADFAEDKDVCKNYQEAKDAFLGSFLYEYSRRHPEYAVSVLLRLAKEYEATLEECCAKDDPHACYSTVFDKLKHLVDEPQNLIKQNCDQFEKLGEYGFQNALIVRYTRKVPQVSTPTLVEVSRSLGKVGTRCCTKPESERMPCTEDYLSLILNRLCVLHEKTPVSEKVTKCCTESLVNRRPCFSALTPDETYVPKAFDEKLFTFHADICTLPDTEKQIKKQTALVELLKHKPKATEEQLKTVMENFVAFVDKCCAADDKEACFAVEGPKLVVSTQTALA

- EC50 [1]: 0.5 nM
- binding result [2]: no binding
B1: 抗BCMA单链抗体B36 (anti-BCMA fully human scFv B36) (scFv)
scFv: QVQLVQSGAEVKKPGSSVKVSCKASGGTFSSYAISWVRQAPGQGLEWMGRIIPILGIANYAQKFQGRVTITADESTSTAYMELSSLRSDDTAVYYCARAGYDRSGYYFQHWGQGTLVTVSSGGGGSGGGGSGGGGSVLTQPPSVSGTPGQRVTISCSGSSSNIGSNIVNWYQQVPGTAPKLLIYSNNQRPSGVPGRFSGSKSGTSASLAIRGLQSDDEADYYCAAWDGGPRGHYVFGTGTKVSVL
notes: The purified protein carries C-terminal HA and 6xHis tags; also called 抗BCMA抗体; 抗人BCMA单链抗体; not shown: C-terminal 6xHis tag from vector pET-26b; junction residues between insert and t
